In PMC8291384 (Nature structural & molecular biology, 2020):

Target: T1, mouse RAG1 (aa 265-1040) E962Q, His6-MBP fusion (mouse, UniProt P15919 265-1040, E962Q)
T1 sequence (looked up): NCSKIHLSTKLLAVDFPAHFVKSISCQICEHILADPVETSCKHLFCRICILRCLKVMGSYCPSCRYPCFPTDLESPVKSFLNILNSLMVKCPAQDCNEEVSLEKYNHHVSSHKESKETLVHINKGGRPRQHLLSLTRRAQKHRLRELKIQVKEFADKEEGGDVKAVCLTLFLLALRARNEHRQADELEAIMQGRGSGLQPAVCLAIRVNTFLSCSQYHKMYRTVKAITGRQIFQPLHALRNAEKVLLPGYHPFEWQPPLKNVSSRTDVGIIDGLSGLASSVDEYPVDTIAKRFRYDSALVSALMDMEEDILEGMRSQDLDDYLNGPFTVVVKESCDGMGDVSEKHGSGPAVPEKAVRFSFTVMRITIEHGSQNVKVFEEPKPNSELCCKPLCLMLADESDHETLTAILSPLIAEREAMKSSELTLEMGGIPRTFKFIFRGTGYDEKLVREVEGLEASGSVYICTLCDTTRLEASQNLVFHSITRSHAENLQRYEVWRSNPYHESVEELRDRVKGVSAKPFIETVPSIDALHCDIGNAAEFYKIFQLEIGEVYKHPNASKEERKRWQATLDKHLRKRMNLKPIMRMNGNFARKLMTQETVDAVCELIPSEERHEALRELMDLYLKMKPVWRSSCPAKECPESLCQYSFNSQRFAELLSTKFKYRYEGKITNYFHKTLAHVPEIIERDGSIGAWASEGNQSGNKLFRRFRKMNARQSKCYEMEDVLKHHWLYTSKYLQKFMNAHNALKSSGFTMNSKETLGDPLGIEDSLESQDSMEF
Experiment: cryo-EM structure

binding result: binds
B1: mouse RAG2 (aa 1-520) T490A, His6-MBP fusion (domain or fragment, UniProt P21784 1-520, looked up)
chain: MSLQMVTVGHNIALIQPGFSLMNFDGQVFFFGQKGWPKRSCPTGVFHFDIKQNHLKLKPAIFSKDSCYLPPLRYPATCSYKGSIDSDKHQYIIHGGKTPNNELSDKIYIMSVACKNNKKVTFRCTEKDLVGDVPEPRYGHSIDVVYSRGKSMGVLFGGRSYMPSTQRTTEKWNSVADCLPHVFLIDFEFGCATSYILPELQDGLSFHVSIARNDTVYILGGHSLASNIRPANLYRIRVDLPLGTPAVNCTVLPGGISVSSAILTQTNNDEFVIVGGYQLENQKRMVCSLVSLGDNTIEISEMETPDWTSDIKHSKIWFGSNMGNGTIFLGIPGDNKQAMSEAFYFYTLRCSEEDLSEDQKIVSNSQTSTEDPGDSTPFEDSEEFCFSAEATSFDGDDEFDTYNEDDEDDESVTGYWITCCPTCDVDINTWVPFYSTELNKPAMIYCSHGDGHWVHAQCMDLEERTLIHLSEGSNKYYCNEHVQIARALQAPKRNPPLQKPPMKSLHKKGSGKVLTPAKKS
